Laboratory results published in paper PMC10000386.
Where a chain is given by its changes, count along the chain named. Numbers in names are those of the source.

Target: T1, Bak ΔBH3, Q16611
T1 chain: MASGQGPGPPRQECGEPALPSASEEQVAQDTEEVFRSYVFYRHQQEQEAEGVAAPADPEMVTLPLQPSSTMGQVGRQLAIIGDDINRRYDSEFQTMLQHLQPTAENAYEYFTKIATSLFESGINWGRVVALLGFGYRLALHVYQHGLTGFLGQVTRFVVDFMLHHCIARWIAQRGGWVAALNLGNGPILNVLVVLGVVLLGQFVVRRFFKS
Assay: BiFC (flow cytometry)
Conditions: chain shown with the change; 6 independent experiments; read off a plot

B1: Bak, Q16611 H164A (protein)
chain: T1 chain with H164A
  response (Mean Venus/Mean mRFP): 0.95
